The text below walks through data of the supplement of paper PMC7877785.

The data set is described as follows: self-splicing fitness, log relative to wild type (ln ratio); higher = more splicing; Tetrahymena group I intron in knt gene, E. coli kanamycin selection, DiMSum; sequences stand for … in CUCUCU…GGAGGGAAAAGUUAUCAGGCAUGCACCUGGUAGCUAGUCUUUAAACCAAUAGAUUGCAUCGGUUUAAAAGGCAAGACCGUCAAAUUGCGGGAAAGGGGUCAACAGCCGUUCAGUACCAAGUCUCAGGGGAAACUUUGAGAUGGCCUUGCAAAGGGUAUGGUAAUAAGCUGACGGACAUGGUCCUAACCACGCAGCCAAGUCCUAAGUCAACAGAUCUUCUGUUGAUAUGGAUGCAGUUCACAGACUAAAUGUCGGUCGGGGAAGAUGUAUUCUUCUCAUAAGAUAUAGUCGGACCUCUCCUUAAUGGGAGCUAGCGGAUGAAGUGAUGCAACACUGGAGCCGCUGGGAACUAAUUUGUAUGCGAAAGUAUAUUGAUUAGUUUUGGAGUACUCGUGGUCG
Put shortly: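 The eight P1ex-region nucleotides of an intron in the knt kanamycin-resistance gene on pET-22b(+) were all randomised and the library put into E. coli BL21(DE3). Six replicate transformations were grown overnight at 37°C or 30°C on LB agar with or without 25 μg/mL kanamycin, together with 100 μg/mL carbenicillin, 50 μM IPTG and 0.2% rhamnose. Colonies were pooled and amplicon-sequenced on an Illumina HiSeq 2500. Fitness from DiMSum is the error-weighted combination of wild-type-normalised replicate fold changes, kanamycin over none.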

± gives the uncertainty stated by the source.

As to UUAAAGCAAUAUUACGGCUG, the “self-splicing fitness (ln)” value worked out at 0.262 ± 0.083 (30 °C) and 0.525 ± 0.12 (37 °C).
On the same counts, the results for AGUCAGCAAUAUUACGCGUA are -0.295 ± 0.067 and 0.106 ± 0.07.
On the same counts, the results for UUGGAGCAAUAUUACGAGCA are -3.18 ± 0.37 and -1.74 ± 0.31.
On the same counts, the results for UCAUAGCAAUAUUACGCCUG are -0.427 ± 0.085 and -0.133 ± 0.11.
As to AAGAAGCAAUAUUACGAGAU, the “self-splicing fitness (ln)” value is -3.43 ± 0.18 (30 °C) and -1.56 ± 0.14 (37 °C).
Taken in the same sequence, the figures for GACAAGCAAUAUUACGCUCA were -0.336 ± 0.056 and 0.274 ± 0.073.
On the same counts, the results for CCCAAGCAAUAUUACGGUUA are -2.28 ± 0.12 and -2.38 ± 0.16.
On the same counts, the results for AAGAAGCAAUAUUACGCAGU are -2.66 ± 0.18 and -2.08 ± 0.15.
Turning to UCGCAGCAAUAUUACGAUUG, the “self-splicing fitness (ln)” value reads like this: (30 °C) -3.66 ± 0.18; (37 °C) -1.9 ± 0.16.
Take AGUGAGCAAUAUUACGCUCU: under “37 °C”, the “self-splicing fitness (ln)” value is -2.1 ± 0.34.
Consider AAACAGCAAUAUUACGCACC, for which the “self-splicing fitness (ln)” value reads like this: (30 °C) -0.45 ± 0.084; (37 °C) -0.254 ± 0.099.
On the same counts, the results for UCAGAGCAAUAUUACGAAAU are -3.56 ± 0.32 and -2.11 ± 0.46.
On the same counts, the results for GUCUAGCAAUAUUACGUAUA are -1.41 ± 0.13 and -0.887 ± 0.12.
In the case of CGCUAGCAAUAUUACGUCAG, the “self-splicing fitness (ln)” value was -1.4 ± 0.12 (30 °C) and -0.542 ± 0.14 (37 °C).
Taken in the same sequence, the figures for GUGGAGCAAUAUUACGCGUG were -2.88 ± 0.37 and -1.77 ± 0.3.
In the case of GUCUAGCAAUAUUACGCCAG, the “self-splicing fitness (ln)” value (30 °C) is -2.46 ± 0.4.
Regarding AUAAAGCAAUAUUACGGGCA, the “self-splicing fitness (ln)” value is -0.434 ± 0.077 (30 °C) and -0.368 ± 0.08 (37 °C).
Take ACCAAGCAAUAUUACGAGGC: the “self-splicing fitness (ln)” value is, setting by setting: (30 °C) -3.14 ± 0.14; (37 °C) -2.32 ± 0.22.
On the same counts, the results for UACGAGCAAUAUUACGAGAC are -3.68 ± 0.26 and -2.72 ± 0.27.
Taken in the same sequence, the figures for UAAUAGCAAUAUUACGGUAU were -3.69 ± 0.21 and -2.68 ± 0.23.
On the same counts, the results for UAAAAGCAAUAUUACGAGGU are -4.31 ± 0.3 and -1.59 ± 0.17.
As to CGCCAGCAAUAUUACGGGUG, the “self-splicing fitness (ln)” value was -4.13 ± 0.14 (30 °C) and -2.58 ± 0.12 (37 °C).
On the same counts, the results for CGGAAGCAAUAUUACGAAUC are -3.29 ± 0.3 and -2.46 ± 0.29.
As to CAGAAGCAAUAUUACGAGAA, where the note is “37 °C”, the “self-splicing fitness (ln)” value is -2.3 ± 0.35.
Turning to AACGAGCAAUAUUACGACCU, the “self-splicing fitness (ln)” value reads like this: (30 °C) -1.02 ± 0.22; (37 °C) -0.178 ± 0.2.
On the same counts, the results for GGGAAGCAAUAUUACGAUUU are -0.13 ± 0.1 and -0.16 ± 0.12.
In the case of AUGUAGCAAUAUUACGCGCA, the “self-splicing fitness (ln)” value (30 °C) was -0.46 ± 0.16 and the “self-splicing fitness (ln)” value (37 °C) is -0.226 ± 0.15.
For the sequence ACGGAGCAAUAUUACGGACC, the “self-splicing fitness (ln)” value (37 °C) was -0.877 ± 0.34.
Take AAUGAGCAAUAUUACGCCUA: the “self-splicing fitness (ln)” value runs as follows: (30 °C) -1.13 ± 0.21; (37 °C) -1.62 ± 0.25.
On the same counts, the results for UGUGAGCAAUAUUACGGAUA are -1.65 ± 0.35 and -1.64 ± 0.34.
In the case of CUCUAGCAAUAUUACGCCAG, the “self-splicing fitness (ln)” value (30 °C) is -2.53 ± 0.32.
CCAGAGCAAUAUUACGAGCC: the “self-splicing fitness (ln)” value (37 °C) was -1.84 ± 0.42.
With ACAAAGCAAUAUUACGUUCG, the “self-splicing fitness (ln)” value reads like this: (30 °C) -1.28 ± 0.049; (37 °C) -0.0172 ± 0.067.
Regarding GGUCAGCAAUAUUACGUGAC, the “self-splicing fitness (ln)” value reads like this: (30 °C) -2.08 ± 0.17; (37 °C) -2 ± 0.24.
On the same counts, the results for CCACAGCAAUAUUACGGUGC are -4.03 ± 0.19 and -2.97 ± 0.2.
Taken in the same sequence, the figures for UUAAAGCAAUAUUACGAGCU were -0.888 ± 0.073 and -0.532 ± 0.1.
Take AAAUAGCAAUAUUACGUCCU: the “self-splicing fitness (ln)” value (30 °C) was -0.0903 ± 0.081 and the “self-splicing fitness (ln)” value (37 °C) came out at 0.319 ± 0.1.
Taken in the same sequence, the figures for AGGGAGCAAUAUUACGGGCG were -4.23 ± 0.32 and -2.35 ± 0.25.
Taken in the same sequence, the figures for AUGCAGCAAUAUUACGAAUU were -1.9 ± 0.1 and -0.246 ± 0.12.
Regarding UCUCAGCAAUAUUACGGCUA, the “self-splicing fitness (ln)” value (30 °C) is -0.678 ± 0.29 and the “self-splicing fitness (ln)” value (37 °C) is -2.19 ± 0.32.
Taken in the same sequence, the figures for GCAAAGCAAUAUUACGCACU were -0.557 ± 0.078 and 0.031 ± 0.092.
On the same counts, the results for AGUAAGCAAUAUUACGUGCU are -2.64 ± 0.23 and -1.2 ± 0.14.
Taken in the same sequence, the figures for CUCAAGCAAUAUUACGCGGC were -3.21 ± 0.25 and -3.15 ± 0.34.
With UGCUAGCAAUAUUACGUCAA, the “self-splicing fitness (ln)” value by setting is: (30 °C) -1.87 ± 0.13; (37 °C) -1.13 ± 0.12.
Taken in the same sequence, the figures for UUGCAGCAAUAUUACGAGUA were -1.92 ± 0.16 and -1.42 ± 0.15.
Regarding AUAUAGCAAUAUUACGUUCC, the “self-splicing fitness (ln)” value (30 °C) was -1.69 ± 0.29.
As to UAGCAGCAAUAUUACGCUGG, the “self-splicing fitness (ln)” value was -2.87 ± 0.13 (30 °C) and -2.45 ± 0.15 (37 °C).
Regarding UAGAAGCAAUAUUACGGCCA, the “self-splicing fitness (ln)” value is, setting by setting: (30 °C) -0.205 ± 0.077; (37 °C) -0.611 ± 0.081.
On the same counts, the results for GCCAAGCAAUAUUACGAGCC are -3.51 ± 0.43 and -1.99 ± 0.43.
Consider CCUGAGCAAUAUUACGGCCC, for which the “self-splicing fitness (ln)” value (30 °C) is -2.54 ± 0.32.
For the sequence AUUCAGCAAUAUUACGUUCA, the “self-splicing fitness (ln)” value runs as follows: (30 °C) -1.07 ± 0.12; (37 °C) -0.606 ± 0.13.
Taken in the same sequence, the figures for GUCGAGCAAUAUUACGUCAA were -2.62 ± 0.29 and -2.32 ± 0.22.
On the same counts, the results for AGGAAGCAAUAUUACGGAAA are -2.92 ± 0.23 and -2.26 ± 0.18.
Taken in the same sequence, the figures for AAGUAGCAAUAUUACGCCGA were -1.53 ± 0.16 and -1.39 ± 0.17.
With GCUGAGCAAUAUUACGGCCG, the “self-splicing fitness (ln)” value is, setting by setting: (30 °C) -3.94 ± 0.32; (37 °C) -2.37 ± 0.39.
As for AGGCAGCAAUAUUACGGAGC, the “self-splicing fitness (ln)” value is -3.51 ± 0.14 (30 °C) and -3.32 ± 0.26 (37 °C).
Taken in the same sequence, the figures for AAAAAGCAAUAUUACGGACC were -0.351 ± 0.092 and -0.225 ± 0.11.
On the same counts, the results for CUGGAGCAAUAUUACGUCCG are -2.17 ± 0.16 and -0.559 ± 0.15.
With CCUUAGCAAUAUUACGGAGC, the “self-splicing fitness (ln)” value is, setting by setting: (30 °C) -3.54 ± 0.34; (37 °C) -2.4 ± 0.25.
GAGGAGCAAUAUUACGCUAG: for the setting “37 °C”, the “self-splicing fitness (ln)” value is -1.8 ± 0.27.
As to UGUCAGCAAUAUUACGUGCA, the “self-splicing fitness (ln)” value was -0.626 ± 0.09 (30 °C) and -0.232 ± 0.1 (37 °C).
On the same counts, the results for ACGAAGCAAUAUUACGAUCA are -1.08 ± 0.12 and -0.536 ± 0.12.
On the same counts, the results for CUCAAGCAAUAUUACGCGAC are -1.93 ± 0.16 and -1.45 ± 0.19.
